{"source": "paper PMC3068998", "proteins": {"B1": {"name": "SV2A: N498Q (protein)", "parent chain": "MEEGFRDRAAFIRGAKDIAKEVKKHAAKKVVKGLDRVQDEYSRRSYSRFEEEEDDDDFPAPADGYYRGEGAQDEEEGGASSDATEGHDEDDEIYEGEYQGIPRAESGGKGERMADGAPLAGVRGGLSDGEGPPGGRGEAQRRKDREELAQQYETILRECGHGRFQWTLYFVLGLALMADGVEVFVVGFVLPSAEKDMCLSDSNKGMLGLIVYLGMMVGAFLWGGLADRLGRRQCLLISLSVNSVFAFFSSFVQGYGTFLFCRLLSGVGIGGSIPIVFSYFSEFLAQEKRGEHLSWLCMFWMIGGVYAAAMAWAIIPHYGWSFQMGSAYQFHSWRVFVLVCAFPSVFAIGALTTQPESPRFFLENGKHDEAWMVLKQVHDTNMRAKGHPERVFSVTHIKTIHQEDELIEIQSDTGTWYQRWGVRALSLGGQVWGNFLSCFSPEYRRITLMMMGVWFTMSFSYYGLTVWFPDMIRHLQAVDYAARTKVFPGERVEHVTFNFTLENQIHRGGQYFNDKFIGLRLKSVSFEDSLFEECYFEDVTSSNTFFRNCTFINTVFYNTDLFEYKFVNSRLVNSTFLHNKEGCPLDVTGTGEGAYMVYFVSFLGTLAVLPGNIVSALLMDKIGRLRMLAGSSVLSCVSCFFLSFGNSESAMIALLCLFGGVSIASWNALDVLTVELYPSDKRTTAFGFLNALCKLAAVLGISIFTSFVGITKAAPILFASAALALGSSLALKLPETRGQVLQ"}, "B2": {"name": "SV2A: N548Q (protein)", "parent chain": "B1 parent chain"}}, "conditions": "glycan lost", "data": [{"protein": "B1", "values": [{"measurement": "other: toxin entry into neurons", "value": "no change"}]}, {"protein": "B2", "values": [{"measurement": "other: toxin entry into neurons", "value": "no change"}]}]}
